The values below come from PMC11277218.

Assay [1] has as its target HPV16 pseudovirions (HPV16-PsVs) (human papillomavirus type 16) (UniProt P03101).
The target is the same in assay [2]. This is another data set of the same source.
The target is the same in assay [3]. This is another data set of the same source.

Sequence of UniProt P03101 (P03101 whole entry, chain 1 of 2): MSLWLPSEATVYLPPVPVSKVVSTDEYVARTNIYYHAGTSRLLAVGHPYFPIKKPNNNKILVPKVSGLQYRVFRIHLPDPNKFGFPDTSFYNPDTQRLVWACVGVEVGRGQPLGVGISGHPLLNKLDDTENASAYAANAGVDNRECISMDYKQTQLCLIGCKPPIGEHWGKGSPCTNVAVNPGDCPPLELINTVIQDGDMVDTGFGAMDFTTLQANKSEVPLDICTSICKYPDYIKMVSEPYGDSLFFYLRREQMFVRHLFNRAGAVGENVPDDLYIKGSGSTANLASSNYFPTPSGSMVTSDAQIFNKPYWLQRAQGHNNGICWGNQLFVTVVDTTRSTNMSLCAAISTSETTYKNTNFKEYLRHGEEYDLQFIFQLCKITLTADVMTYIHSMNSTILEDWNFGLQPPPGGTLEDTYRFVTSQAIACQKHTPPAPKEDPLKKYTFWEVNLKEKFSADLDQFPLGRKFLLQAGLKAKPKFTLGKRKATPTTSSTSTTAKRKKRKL
Sequence of UniProt P03101 (P03107 whole entry, chain 2 of 2, further chain): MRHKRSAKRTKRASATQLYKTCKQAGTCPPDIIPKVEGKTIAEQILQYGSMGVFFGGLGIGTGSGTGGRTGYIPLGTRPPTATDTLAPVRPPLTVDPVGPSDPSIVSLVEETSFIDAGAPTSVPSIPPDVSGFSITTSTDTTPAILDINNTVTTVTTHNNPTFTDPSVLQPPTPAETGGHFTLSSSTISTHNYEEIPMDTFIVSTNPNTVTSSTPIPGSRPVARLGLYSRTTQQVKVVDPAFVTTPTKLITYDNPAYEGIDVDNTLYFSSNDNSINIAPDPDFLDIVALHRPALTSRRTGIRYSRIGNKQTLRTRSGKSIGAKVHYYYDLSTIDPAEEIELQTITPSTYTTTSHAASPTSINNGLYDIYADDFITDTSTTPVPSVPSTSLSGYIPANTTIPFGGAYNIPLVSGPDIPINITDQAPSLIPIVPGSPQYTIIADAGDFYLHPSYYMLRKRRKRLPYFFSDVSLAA

In assay [1], “native human surfactant protein A (SP-A) (from UniProt Q8IWL2 21-248) (natural protein)” yielded an uptake of SP-A-preincubated AF488-PsVs into RAW264.7 macrophages, MFI by flow cytometry, fold of the BSA control of 1.75 fold; an uptake of SP-A-preincubated AF488-PsVs into RAW264.7 macrophages, positive cells by flow cytometry, fold of the BSA control of 2 fold; an uptake of SP-A-preincubated AF488-PsVs into THP-1-derived immature dendritic cells (DC0), positive cells by flow cytometry, fold of the BSA control of 2 fold; an uptake of SP-A-preincubated AF488-PsVs into THP-1 monocytes, MFI by flow cytometry, fold of the BSA control of 1.3 fold. Also, the infection of HaCaT monocultures by SP-A-preincubated PsVs, Gaussia luciferase at 48 h, against the BSA control in assay [2] worked out at 40 % reduction. This substance returned an uptake of SP-A-preincubated AF488-PsVs into HaCaT keratinocytes, positive cells by flow cytometry, against the BSA control (fold decrease) in assay [3] of 2.
